# Data from US20240075134A1 (Seagen, published 2024).
# B1: SEA-CD40 (non-fucosylated humanized S2C6 antibody) (antibody, human IgG1, kappa)
# heavy: not shown
# light: DIQMTQSPSSLSASVGDRVTITCRSSQSLVHSNGNTFLHWYQQKPGKAPKLLIYTVSNRFSGVPSRFSGSGSGTDFTLTISSLQPEDFATYFCSQTTHVPWTFGQGTKVEIKRTVAAPSVFIFPPSDEQLKSGTASVVCLLNNFYPREAKVQWKVDNALQSGNSQESVTEQDSKDSTYSLSSTLTLSKADYEKHKVYACEVTHQGLSSPVTKSFNRGEC
# notes: also called SEA40; non-fucosylated hS2C6; copies: 2 + 2
# B2: dacetuzumab (fucosylated humanized S2C6) (antibody, human IgG1, kappa)
# heavy: not shown
# light: B1 light
# notes: also called SGN-40; SGN40; copies: 2 + 2
# How the values were obtained:
# [1] = target: T1, human CD40 on the surface of PBMCs (human, UniProt P25942 21-277); test: cell-based or functional assay
# T1 sequence (P25942 21-277): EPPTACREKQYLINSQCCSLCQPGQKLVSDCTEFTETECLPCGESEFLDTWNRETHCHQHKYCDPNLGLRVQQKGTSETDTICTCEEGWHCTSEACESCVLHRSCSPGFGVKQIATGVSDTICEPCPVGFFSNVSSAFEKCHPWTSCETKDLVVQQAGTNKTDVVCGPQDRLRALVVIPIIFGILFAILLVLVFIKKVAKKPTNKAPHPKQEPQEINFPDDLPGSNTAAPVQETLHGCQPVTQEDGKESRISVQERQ
# [2] = target: T2, human FcγRIIIa, high affinity (158V) form, on CHO cells (human, UniProt P08637 17-254); test: flow cytometry, biotinylated antibody on CHO cells expressing FcγRIIIa 158V
# T2 construct: whole, on cells; Position 158 probably counts on the mature protein; also called FcγRIIIa 158V
# T2 sequence (P08637 17-254 F176V): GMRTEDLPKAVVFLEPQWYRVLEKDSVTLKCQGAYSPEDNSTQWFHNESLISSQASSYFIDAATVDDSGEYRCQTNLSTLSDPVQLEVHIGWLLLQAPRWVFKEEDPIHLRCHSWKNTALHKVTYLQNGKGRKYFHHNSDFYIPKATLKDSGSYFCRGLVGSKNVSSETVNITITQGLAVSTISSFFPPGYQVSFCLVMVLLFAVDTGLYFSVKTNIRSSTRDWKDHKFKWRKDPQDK
# murine CD40 = target: T3, murine CD40 (murine, UniProt P27512 20-193, limits assumed); test: not described
# T3 sequence (looked up): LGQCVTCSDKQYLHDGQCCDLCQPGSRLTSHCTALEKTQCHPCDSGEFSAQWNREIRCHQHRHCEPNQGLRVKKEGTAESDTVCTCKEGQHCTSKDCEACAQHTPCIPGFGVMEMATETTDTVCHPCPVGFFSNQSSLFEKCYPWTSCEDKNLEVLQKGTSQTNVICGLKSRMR
# [3] = target: T1, human CD40 on the surface of PBMCs; test: cell-based or functional assay; remark: listed apart in the source
# [4] = target: T4, human FcγRIIIa, low affinity (158F) form, on CHO cells (human, UniProt P08637 17-254); test: flow cytometry, biotinylated antibody on CHO cells expressing FcγRIIIa 158F
# T4 construct: whole, on cells; Allotype with F at position 158 as printed; also called FcγRIIIa 158F
# T4 sequence (P08637 17-254): as the sequence (P08637 17-254 F176V) above, with V160F counted along it
binder,measurement,setting,value
B1,EC50 of CD86 upregulation on PBMCs (24 hr),[1],0.14 µg/mL
same,EC50 of MHCI upregulation on PBMCs (48 hr),[1],0.011 µg/mL
same,EC50 of MHCII upregulation on PBMCs (24 hr),[1],0.41 µg/mL
same,Kd,[2],5.2 nM
same,binding result,murine CD40,no binding
same,"MHCII surface expression on PBMCs, ratio to SEA-h00; SEA-CD40 0.0001 µg/mL, 6 hrs",[3],0.85 fold
same,"MHCII surface expression on PBMCs, ratio to SEA-h00; SEA-CD40 0.0001 µg/mL, 24 hrs",[3],1.05 fold
same,"MHCII surface expression on PBMCs, ratio to SEA-h00; SEA-CD40 0.0001 µg/mL, 48 hrs",[3],0.99 fold
same,"MHCII surface expression on PBMCs, ratio to SEA-h00; SEA-CD40 0.001 µg/mL, 6 hrs",[3],1 fold
same,"MHCII surface expression on PBMCs, ratio to SEA-h00; SEA-CD40 0.001 µg/mL, 24 hrs",[3],1.07 fold
same,"MHCII surface expression on PBMCs, ratio to SEA-h00; SEA-CD40 0.001 µg/mL, 48 hrs",[3],1.1 fold
same,"MHCII surface expression on PBMCs, ratio to SEA-h00; SEA-CD40 0.01 µg/mL, 6 hrs",[3],0.9 fold
same,"MHCII surface expression on PBMCs, ratio to SEA-h00; SEA-CD40 0.01 µg/mL, 24 hrs",[3],1.21 fold
same,"MHCII surface expression on PBMCs, ratio to SEA-h00; SEA-CD40 0.01 µg/mL, 48 hrs",[3],1.38 fold
same,"MHCII surface expression on PBMCs, ratio to SEA-h00; SEA-CD40 0.1 µg/mL, 6 hrs",[3],0.9 fold
same,"MHCII surface expression on PBMCs, ratio to SEA-h00; SEA-CD40 0.1 µg/mL, 24 hrs",[3],1.19 fold
same,"MHCII surface expression on PBMCs, ratio to SEA-h00; SEA-CD40 0.1 µg/mL, 48 hrs",[3],1.5 fold
same,"MHCII surface expression on PBMCs, ratio to SEA-h00; SEA-CD40 1 µg/mL, 6 hrs",[3],1.14 fold
same,"MHCII surface expression on PBMCs, ratio to SEA-h00; SEA-CD40 1 µg/mL, 24 hrs",[3],1.76 fold
same,"MHCII surface expression on PBMCs, ratio to SEA-h00; SEA-CD40 1 µg/mL, 48 hrs",[3],1.57 fold
same,"MHCII surface expression on PBMCs, ratio to SEA-h00; SEA-CD40 10 µg/mL, 6 hrs",[3],1.1 fold
same,"MHCII surface expression on PBMCs, ratio to SEA-h00; SEA-CD40 10 µg/mL, 24 hrs",[3],1.62 fold
same,"MHCII surface expression on PBMCs, ratio to SEA-h00; SEA-CD40 10 µg/mL, 48 hrs",[3],2.1 fold
same,"MHCII surface expression on PBMCs, ratio to SEA-h00; SEA-CD40 100 µg/mL, 6 hrs",[3],1.13 fold
same,"MHCII surface expression on PBMCs, ratio to SEA-h00; SEA-CD40 100 µg/mL, 24 hrs",[3],1.64 fold
same,"MHCII surface expression on PBMCs, ratio to SEA-h00; SEA-CD40 100 µg/mL, 48 hrs",[3],2.1 fold
same,Kd,[4],27.5 nM
B2,Kd,[2],37.9 nM
same,Kd,[4],303 nM
